The target in one assay is HLA-A*24:02. Nature of the assay: IEDB peptide-MHC binding, purified MHC/competitive/fluorescence; filed as Kd, often an IC50 or EC50 that approximates it; ≥ and ≤ were set here for values at or beyond the usual limits of such assays.
Assay [1] addresses HLA-A*02:01. The assay is described as above. The note with it: source organism: Vibrio vulnificus.
A further assay addresses HLA-A*02:12. The assay is described as above. The conditions noted are these: source organism: Vibrio vulnificus.
The next assay concerns the target HLA-B*27:03. The assay is described as above. The conditions noted are these: source organism: Vibrio vulnificus.
The next assay addresses HLA-A*26:01. The assay is described as above. The note with it: source organism: Vibrio vulnificus.
The target in a further assay is HLA-A*23:01. The assay is described as above.
The next assay deals with HLA-A*68:02. The description is as above. The conditions noted are these: source organism: Vibrio vulnificus.
Another assay deals with HLA-A*24:03. Described as above. The conditions noted are these: source organism: Vibrio vulnificus.
For assay [2], the target named is HLA-B*57:01. Described as above. The conditions noted are these: source organism: Vibrio vulnificus.
The target in a further assay is HLA-A*02:16. The description is as above. The conditions noted are these: source organism: Vibrio vulnificus.
Assay [3] deals with HLA-B*51:01. The assay is described as above. The conditions noted are these: source organism: Vibrio vulnificus.
For the next assay, the target named is HLA-A*02:03. The description is as above. The conditions noted are these: source organism: Vibrio vulnificus.
Assay [4] deals with HLA-A*69:01. The assay is described as above. The note with it: source organism: Vibrio vulnificus.
For assay [5], the target named is HLA-B*15:17. Described as above. The note with it: source organism: Vibrio vulnificus.
Assay [6] concerns the target HLA-B*15:01. The description is as above. The conditions noted are these: source organism: Vibrio vulnificus.
Assay [7] concerns the target HLA-B*46:01. The description is as above. The conditions noted are these: source organism: Vibrio vulnificus.
For assay [8], the target named is HLA-B*18:01. Described as above. The conditions noted are these: source organism: Vibrio vulnificus.
Another assay has as its target HLA-A*02:19. The assay is described as above. The note with it: source organism: Vibrio vulnificus.
A further assay addresses HLA-A*03:01. Described as above.
For a further assay, the target named is HLA-A*02:11. The assay is described as above. The conditions noted are these: source organism: Vibrio vulnificus.
A further assay concerns the target HLA-A*29:02. The description is as above. The conditions noted are these: source organism: Vibrio vulnificus.
Another assay has as its target HLA-B*39:01. Described as above.
The target of a further assay is HLA-C*15:02. Kind of assay: IEDB peptide-MHC binding, purified MHC/direct/fluorescence; filed as Kd, often an IC50 or EC50 that approximates it; ≥ and ≤ were set here for values at or beyond the usual limits of such assays. The conditions noted are these: source organism: Cryptosporidium parvum Iowa II.
A further assay concerns the target HLA-C*06:02. The description is as above. The conditions noted are these: source organism: Cryptosporidium parvum Iowa II.
The next assay concerns the target HLA-C*14:02. The description is as above.
In a further assay the target is HLA-B*15:09. Kind of assay: IEDB peptide-MHC binding, purified MHC/competitive/fluorescence; filed as Kd, often an IC50 or EC50 that approximates it; ≥ and ≤ were set here for values at or beyond the usual limits of such assays. The conditions noted are these: source organism: Mycobacterium leprae.
Another assay deals with HLA-A*31:01. Described as above. The note with it: source organism: Mycobacterium leprae.
In a further assay the target is HLA-A*11:01. The description is as above. The note with it: source organism: Mycobacterium leprae.
For assay [9], the target named is HLA-A*02:01. Kind of assay: IEDB peptide-MHC binding, purified MHC/direct/fluorescence; filed as Kd, often an IC50 or EC50 that approximates it; ≥ and ≤ were set here for values at or beyond the usual limits of such assays. The note with it: source organism: Mycobacterium tuberculosis.
For assay [10], the target named is HLA-B*57:01. Described as above. The note with it: source organism: Mycobacterium tuberculosis.
The target of assay [11] is HLA-B*51:01. The assay is described as above. The conditions noted are these: source organism: Mycobacterium tuberculosis.
The next assay deals with HLA-B*08:01. The description is as above. The note with it: source organism: Mycobacterium tuberculosis str. Haarlem.
In assay [12] the target is HLA-A*69:01. The description is as above. The note with it: source organism: Mycobacterium tuberculosis.
The next assay deals with HLA-B*48:01. The assay is described as above. The conditions noted are these: source organism: Mycobacterium tuberculosis.
In assay [13] the target is HLA-B*15:17. The assay is described as above. The note with it: source organism: Mycobacterium tuberculosis.
For assay [14], the target named is HLA-B*15:01. The description is as above. The note with it: source organism: Mycobacterium tuberculosis.
The next assay has as its target HLA-A*01:01. The description is as above. The conditions noted are these: source organism: Mycobacterium tuberculosis.
In assay [15] the target is HLA-B*46:01. The assay is described as above. The note with it: source organism: Mycobacterium tuberculosis.
The target in a further assay is HLA-B*40:01. The assay is described as above. The note with it: source organism: Mycobacterium tuberculosis.
In assay [16] the target is HLA-B*18:01. Described as above. The conditions noted are these: source organism: Mycobacterium tuberculosis.
The target of the next assay is HLA-B*58:01. The assay is described as above. The note with it: source organism: Mycobacterium tuberculosis.
A further assay deals with HLA-B*27:05. The assay is described as above. The conditions noted are these: source organism: Mycobacterium tuberculosis.
Where [17] appears, read: source organism: Vibrio vulnificus.
[18] abbreviates: source organism: Cryptosporidium parvum Iowa II.
Setting [19] is: source organism: Bacillus thuringiensis serovar tochigiensis BGSC 4Y1.
Where [20] appears, read: source organism: Mycobacterium leprae.

Some results are limits rather than exact numbers.

The term Kd denotes the concentration at which binding is half-saturated. Lower therefore signals higher affinity.

Take IYAAISYMI: the Kd in the assay with HLA-A*24:02 (source organism: Salmonella enterica subsp. enterica serovar Typhi) was at most 0.1 nM.

As for DEWECTRDD, the Kd with HLA-A*02:01 [1], in the assay with HLA-A*02:12, with HLA-B*27:03, with HLA-A*26:01, with HLA-A*23:01 (setting [17]) and with HLA-A*68:02 was at least 20 µM each time. Further, the Kd with HLA-A*24:03, in the assay with HLA-B*57:01 [2], in the assay with HLA-A*02:16, with HLA-B*51:01 [3], with HLA-A*02:03 and with HLA-A*69:01 [4] was at least 20 µM in each case. The Kd was at least 20 µM with HLA-B*15:17 [5]; at least 20 µM in the assay with HLA-B*15:01 [6]; at least 20 µM in the assay with HLA-B*46:01 [7]; 59.4 nM with HLA-B*18:01 [8]; at least 20 µM with HLA-A*02:19; at least 20 µM with HLA-A*03:01 (setting [17]). The Kd in the assay with HLA-A*02:11 was at least 20 µM; with HLA-A*29:02 it was at least 20 µM; in the assay with HLA-B*39:01 (setting [17]) it was at least 20000 nM.

As for SFLHWFHHL, the Kd was at most 0.0001 µM with HLA-A*23:01 (setting [18]), at least 20 µM in the assay with HLA-C*15:02, at least 20 µM in the assay with HLA-C*06:02 and 111 nM with HLA-C*14:02 (setting [18]).

Regarding KYAKFFQNF, the Kd in the assay with HLA-A*24:02 (setting [19]) is at most 0.1 nM; with HLA-C*14:02 (setting [19]), 428 nM.

For YPACEAIGL, the Kd is 526 nM in the assay with HLA-B*15:09; at least 20 µM with HLA-A*31:01; 854 nM with HLA-A*11:01; at least 20 µM with HLA-A*03:01 (setting [20]); 31 nM with HLA-B*39:01 (setting [20]); at least 20 µM in the assay with HLA-A*02:01 [9]. The Kd with HLA-B*57:01 [10] is at least 20 µM; in the assay with HLA-B*51:01 [11] it was at least 20 µM; with HLA-B*08:01, at least 20 µM; with HLA-A*69:01 [12], 90.5 nM; in the assay with HLA-B*48:01, at least 20 µM; with HLA-B*15:17 [13], at least 20 µM. The Kd with HLA-B*15:01 [14] is at least 20 µM; with HLA-A*01:01, at least 20 µM; with HLA-B*46:01 [15], at least 20 µM; in the assay with HLA-B*40:01 it was at least 20 µM; with HLA-B*18:01 [16] it was 166 nM; with HLA-B*58:01, at least 20 µM. In the assay with HLA-B*27:05, this sequence displayed a Kd of at least 20 µM.

Sequence SFYKNLIW showed a Kd in the assay with HLA-A*24:02 (source organism: Influenza A virus (A/swine/Korea/Hongsong2/2004(H1N2))) of 138 nM.

The record behind these values is the Immune Epitope Database (IEDB).
